# According to the supplement of paper PMC12338614:
# ± gives the uncertainty stated by the source.
# B1: library; numbered along this chain (parent)
# chain: MEVVDPQQLGMFTEGELMSVGMDTFIHRIDSTEVIYQPRRKRAKLIGKYLMGDLLGEGSYGKVKEVLDSETLCRRAVKILKKKKLRRIPNGEANVKKEIQLLRRLRHKNVIQLVDVLYNEEKQKMYMVMEYCVCGMQEMLDSVPEKRFPVCQAHGYFCQLIDGLEYLHSQGIVHKDIKPGNLLLTTGGTLKISDLGVAEALHPFAADDTCRTSQGSPAFQPPEIANGLDTFSGFKVDIWSAGVTLYNITTGLYPFEGDNIYKLFENIGKGSYAIPGDCGPPLSDLLKGMLEYEPAKRFSIRQIRQHSWFRKKHPPAEAPVPIPPSPDTKDRWRSMTVVPYLEDLHGADEDEDLFDIEDDIIYTQDFTVPGQVPEEEASHNGQRRGLPKAVCMNGTEAAQLSTKSRAEGRAPNPARKACSASSKIRRLSACKQQ
# Variants of: B1
# Assay: STK11 functional score (HeLa growth suppression), rescaled enrichment; synonymous median = 1, nonsense median = 0 (normalised score)
# Conditions: with HeLa; variant type: missense
# Method: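 Deep mutational scan (TileSeq/POPCode codon randomisation) of full-length codon-optimised STK11 cDNA integrated at a Bxb1 landing pad (AAVS1) in HeLa cells. Restoring functional STK11 suppresses HeLa proliferation. Variant frequencies were measured by NGS before and after about two weeks of growth. The error-corrected enrichment log-ratio was rescaled so that synonymous median = 1 and nonsense median = 0, scores above 1 were compressed, and codon-level and three biological replicate scores were combined; error is the bootstrapped standard error. Scale: synonymous median = 1, nonsense median = 0; below 0.5 = damaging.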
row,Variant,STK11 functional score
1,L54I,0.71 ± 0.19
2,R301P,1.07 ± 0.38
3,F148E,0.147 ± 0.17
4,F231H,0.765 ± 0.42
5,Q112A,1.24 ± 0.47
6,P387Y,0.935 ± 0.43
7,I356Y,1.12 ± 0.18
8,P254V,0.86 ± 0.31
9,V338S,1.59 ± 0.26
10,T395H,1.53 ± 0.25
11,L184D,-0.0783 ± 0.1
12,P281T,1.46 ± 0.22
13,L67R,0.719 ± 0.45
14,V338P,1.54 ± 0.18
15,R405L,1.59 ± 0.28
16,L54H,1.15 ± 0.19
17,T230L,0.829 ± 0.16
18,H313N,0.48 ± 0.26
19,R28C,0.873 ± 0.22
20,H168F,0.851 ± 0.51
21,P280T,1.53 ± 0.25
22,C73E,1.7 ± 0.41
23,M335K,1.03 ± 0.7
24,S59E,1.42 ± 0.18

row,Variant,STK11 functional score
1,S240H,1.08 ± 0.12
2,E317N,1.6 ± 0.3
3,T244V,1.15 ± 0.45
4,I248C,1 ± 0.24
5,D358P,0.725 ± 0.8
6,M136P,-0.132 ± 0.082
7,N266H,1.29 ± 0.56
8,E223L,0.529 ± 0.18
9,K146R,1.58 ± 0.39
10,L80Y,1.13 ± 0.23
11,A398W,0.886 ± 0.088
12,L140T,0.232 ± 0.25
13,P254W,0.882 ± 0.1
14,P413T,1.44 ± 0.24
15,G279P,1.17 ± 0.33
16,C278I,0.402 ± 0.12
17,K178C,0.883 ± 0.25
18,Q112F,1.11 ± 0.18
19,C132M,1.35 ± 0.73
20,R331E,1.12 ± 0.55
21,L286Y,1.36 ± 0.45
22,Y272R,0.701 ± 0.25
23,P6S,1.52 ± 0.17
24,N119I,1.51 ± 0.062

row,Variant,STK11 functional score
1,A410K,1.6 ± 0.2
2,I238V,1.21 ± 0.16
3,L228Y,1.25 ± 0.54
4,D208W,0.524 ± 0.58
5,V128G,0.233 ± 0.1
6,G188Y,1.6 ± 0.23
7,N247Y,1.32 ± 0.28
8,N119F,1.16 ± 0.097
9,L72A,0.81 ± 0.3
10,V116R,0.888 ± 0.12
11,F264S,0.597 ± 0.21
12,A316V,0.768 ± 0.24
13,G370D,1.24 ± 0.39
14,A273K,0.589 ± 0.23
15,P413E,1.59 ± 0.25
16,I322E,1.11 ± 0.19
17,S378F,1.41 ± 0.43
18,G242D,0.0263 ± 0.13
19,Q302G,1.14 ± 0.51
20,F148I,1.31 ± 0.41
21,R383P,1.31 ± 0.26
22,I322N,1.59 ± 0.44
23,D30R,1.69 ± 0.13
24,G257L,0.765 ± 0.18

row,Variant,STK11 functional score
1,P411I,1.55 ± 0.15
2,E33T,1.69 ± 0.25
3,T395W,1.61 ± 0.26
4,E98S,1.49 ± 0.16
5,Q371L,1.44 ± 0.17
6,L400T,1.11 ± 0.44
7,Q7S,1.02 ± 0.31
8,D229S,1.01 ± 0.28
9,K78F,0.0316 ± 0.078
10,K235Y,1.19 ± 0.36
11,V338C,0.965 ± 0.28
12,L102S,0.447 ± 0.3
13,W332C,0.361 ± 0.46
14,H379R,1.36 ± 0.18
15,R310V,1.43 ± 0.15
16,K78N,0.219 ± 0.18
17,I238R,-0.17 ± 0.18
18,E351T,1.52 ± 0.18
19,E396Q,1.18 ± 0.64
20,C151N,0.808 ± 0.43
21,Q305C,1.27 ± 0.4
22,K44L,1.36 ± 0.2
23,S299V,0.978 ± 0.26
24,D258F,0.78 ± 0.28

row,Variant,STK11 functional score
1,G15R,1.4 ± 0.4
2,P339L,0.979 ± 0.25
3,Q382G,1.4 ± 0.24
4,Q159L,0.623 ± 0.11
5,E396W,1.49 ± 0.21
6,L160A,1.07 ± 0.18
7,I79W,-0.0803 ± 0.077
8,I238N,1.22 ± 0.86
9,T249H,1.64 ± 0.2
10,L245E,-0.0467 ± 0.26
11,R39M,1.58 ± 0.16
12,I224P,0.889 ± 0.11
13,P38W,0.876 ± 0.077
14,P179A,0.764 ± 0.091
15,R87P,1.24 ± 0.12
16,R147E,-0.0954 ± 0.2
17,V143Q,0.751 ± 0.082
18,E57W,0.873 ± 0.077
19,G385I,1.45 ± 0.25
20,W332L,1.55 ± 0.14
21,G346F,1.29 ± 0.54
22,A218T,0.88 ± 0.47
23,D358S,1.47 ± 0.25
24,D115E,1.27 ± 0.32

row,Variant,STK11 functional score
1,K269A,0.886 ± 0.2
2,K78W,-0.148 ± 0.077
3,V116I,0.327 ± 0.24
4,F148M,1.3 ± 0.082
5,Y156S,0.762 ± 0.14
6,E357C,1.36 ± 0.37
7,R384F,1.55 ± 0.1
8,R40G,1.19 ± 0.27
9,G10F,1.56 ± 0.41
10,L285D,-0.216 ± 0.087
11,D237N,1.36 ± 0.7
12,S422F,1.4 ± 0.44
13,V320I,1.59 ± 0.17
14,K97S,0.724 ± 0.17
15,K44Q,1.24 ± 0.31
16,V66A,1.4 ± 0.092
17,I29W,1.63 ± 0.21
18,L9F,1.06 ± 0.19
19,A318I,1.49 ± 0.16
20,F264E,1.57 ± 0.26
21,I322M,0.829 ± 0.47
22,R301C,1.17 ± 0.38
23,P38G,0.508 ± 0.53
24,F234W,1.44 ± 0.21

row,Variant,STK11 functional score
1,F234R,1.5 ± 0.19
2,P38H,1.11 ± 0.58
3,T328H,1.52 ± 0.17
4,H107T,1.02 ± 0.7
5,D53A,1.07 ± 0.12
6,S378Y,1.35 ± 0.35
7,H313W,1.05 ± 0.35
8,V197G,0.372 ± 0.21
9,K44Y,1.46 ± 0.087
10,G270D,1.52 ± 0.2
11,P6F,0.754 ± 0.11
12,M127I,0.605 ± 0.22
13,L344V,1.42 ± 0.27
14,S232R,1.39 ± 0.17
15,L195I,1.44 ± 0.26
16,K78Y,-0.374 ± 0.076
17,F157L,0.19 ± 0.45
18,F204A,1.03 ± 0.52
19,E121A,0.765 ± 0.27
20,R75A,1.68 ± 0.19
21,L54A,0.975 ± 0.29
22,R104G,0.389 ± 0.56
23,Y156T,1.13 ± 0.67
